{"source": "the supplement of paper PMC10567573", "parents": {"B1": {"name": "SPOPL (parent)", "chain": "PDDKLTLFCEVSVVQDSVNISGHT"}}}
{"variants_of": "B1", "experiment": "protein stability index of a GFP-peptide fusion (GPS, HEK-293T) (PSI 1-6); higher = more stable", "settings": "c terminus: a fixed tail appended"}
{"variant": "PDDKLTLLCEVSVVQDSVNISGHT", "note": "[F8L]", "protein stability index": 2.91}
{"variant": "PDDKLTLGCEVSVVQDSVNISGHT", "note": "[F8G]", "protein stability index": 4.82}
{"variant": "PDDKLTLICEVSVVQDSVNISGHT", "note": "[F8I]", "protein stability index": 1.3}
{"variant": "PDDKLTLECEVSVVQDSVNISGHT", "note": "[F8E]", "protein stability index": 4.39}
{"variant": "PDDKLTLYCEVSVVQDSVNISGHT", "note": "[F8Y]", "protein stability index": 2.08}
{"variant": "PDDKLTLSCEVSVVQDSVNISGHT", "note": "[F8S]", "protein stability index": 3.96}
{"variant": "PDDKLTLMCEVSVVQDSVNISGHT", "note": "[F8M]", "protein stability index": 2.86}
{"variant": "PDDKLTLVCEVSVVQDSVNISGHT", "note": "[F8V]", "protein stability index": 1.97}
{"variant": "PDDKLTLFCFVSVVQDSVNISGHT", "note": "[E10F]", "protein stability index": 3.15}
{"variant": "PDDKLTLFCAVSVVQDSVNISGHT", "note": "[E10A]", "protein stability index": 2.48}
{"variant": "PDDKLTLFCGVSVVQDSVNISGHT", "note": "[E10G]", "protein stability index": 2.52}
{"variant": "PDDKLTLFCVVSVVQDSVNISGHT", "note": "[E10V]", "protein stability index": 3.33}
{"variant": "PDDKLTLFCQVSVVQDSVNISGHT", "note": "[E10Q]", "protein stability index": 2.27}
{"variant": "PDDKLTLFCPVSVVQDSVNISGHT", "note": "[E10P]", "protein stability index": 3.44}
{"variant": "PDDKLTLFCMVSVVQDSVNISGHT", "note": "[E10M]", "protein stability index": 3.02}
{"variant": "PDDKLTLFCRVSVVQDSVNISGHT", "note": "[E10R]", "protein stability index": 1.94}
{"variant": "PDDKLTLFCDVSVVQDSVNISGHT", "note": "[E10D]", "protein stability index": 2.76}
{"variant": "PDDKLTLFCSVSVVQDSVNISGHT", "note": "[E10S]", "protein stability index": 1.58}
{"variant": "PDDKLTLFCHVSVVQDSVNISGHT", "note": "[E10H]", "protein stability index": 2.12}
{"variant": "PDDKLTLFCTVSVVQDSVNISGHT", "note": "[E10T]", "protein stability index": 3.3}
{"variant": "PDDKLTLFCIVSVVQDSVNISGHT", "note": "[E10I]", "protein stability index": 2.63}
{"variant": "PDDKLTLFCKVSVVQDSVNISGHT", "note": "[E10K]", "protein stability index": 1.45}
{"variant": "PDDKLTLFCLVSVVQDSVNISGHT", "note": "[E10L]", "protein stability index": 3.02}
{"variant": "PDDKLTLFCWVSVVQDSVNISGHT", "note": "[E10W]", "protein stability index": 2.53}
{"variant": "PDDKLTLFCCVSVVQDSVNISGHT", "note": "[E10C]", "protein stability index": 2.81}
{"variant": "PDDKLTLFCNVSVVQDSVNISGHT", "note": "[E10N]", "protein stability index": 2.74}
{"variant": "PDDKLTLFCEVSVVQDVVNISGHT", "note": "[S17V]", "protein stability index": 1.03}
{"variant": "PDDKLTLFCEVSVVQDNVNISGHT", "note": "[S17N]", "protein stability index": 1.84}
{"variant": "PDDKLTLFCEVSVVQDLVNISGHT", "note": "[S17L]", "protein stability index": 3.52}
{"variant": "PDDKLTLFCEVSVVQDQVNISGHT", "note": "[S17Q]", "protein stability index": 2.07}
{"variant": "PDDKLTLFCEVSVVQDAVNISGHT", "note": "[S17A]", "protein stability index": 2.29}
{"variant": "PDDKLTLFCEVSVVQDKVNISGHT", "note": "[S17K]", "protein stability index": 3.12}
{"variant": "PDDKLTLFCEVSVVQDYVNISGHT", "note": "[S17Y]", "protein stability index": 2.99}
{"variant": "PDDKLTLFCEVSVVQDTVNISGHT", "note": "[S17T]", "protein stability index": 1.85}
{"variant": "PDDKLTLFCEVSVVQDPVNISGHT", "note": "[S17P]", "protein stability index": 2.85}
{"variant": "PDDKLTLFCEVSVVQDRVNISGHT", "note": "[S17R]", "protein stability index": 1.73}
{"variant": "PDDKLTLFCEVSVVQDGVNISGHT", "note": "[S17G]", "protein stability index": 2}
{"variant": "PDDKLTLFCEVSVVQDHVNISGHT", "note": "[S17H]", "protein stability index": 1.38}
{"variant": "PDDKLTLFCEVSVVQDDVNISGHT", "note": "[S17D]", "protein stability index": 3.11}
{"variant": "PDDKLTLFCEVSVVQDFVNISGHT", "note": "[S17F]", "protein stability index": 4.06}
{"variant": "PDDKLTLFCEVSVVQDMVNISGHT", "note": "[S17M]", "protein stability index": 3.15}
{"variant": "PDDKLTLFCEVSVVQDCVNISGHT", "note": "[S17C]", "protein stability index": 2.61}
{"variant": "PDDKLTLFCEVSVVQDEVNISGHT", "note": "[S17E]", "protein stability index": 2.99}
{"variant": "PDDKLTLFCELSVVQDSVNISGHT", "note": "[V11L]", "protein stability index": 1.93}
{"variant": "PDDKLTLFCEGSVVQDSVNISGHT", "note": "[V11G]", "protein stability index": 4.76}
{"variant": "PDDKLTLFCEWSVVQDSVNISGHT", "note": "[V11W]", "protein stability index": 2.14}
{"variant": "PDDKLTLFCEKSVVQDSVNISGHT", "note": "[V11K]", "protein stability index": 4.85}
{"variant": "PDDKLTLFCECSVVQDSVNISGHT", "note": "[V11C]", "protein stability index": 3.34}
{"variant": "PDDKLTLFCEESVVQDSVNISGHT", "note": "[V11E]", "protein stability index": 4.81}
{"variant": "PDDKLTLFCEMSVVQDSVNISGHT", "note": "[V11M]", "protein stability index": 2.77}
{"variant": "PDDKLTLFCERSVVQDSVNISGHT", "note": "[V11R]", "protein stability index": 3.67}
{"variant": "PDDKLTLFCEPSVVQDSVNISGHT", "note": "[V11P]", "protein stability index": 4.58}
{"variant": "PDDKLTLFCEYSVVQDSVNISGHT", "note": "[V11Y]", "protein stability index": 2.46}
{"variant": "PDDKLTLFCESSVVQDSVNISGHT", "note": "[V11S]", "protein stability index": 4.47}
{"variant": "PDDKLTLFCEISVVQDSVNISGHT", "note": "[V11I]", "protein stability index": 1.95}
{"variant": "PDDKLTLFCETSVVQDSVNISGHT", "note": "[V11T]", "protein stability index": 4.26}
{"variant": "PDDKLTLFCEQSVVQDSVNISGHT", "note": "[V11Q]", "protein stability index": 4.62}
{"variant": "PDDKLTLFCEHSVVQDSVNISGHT", "note": "[V11H]", "protein stability index": 4.28}
{"variant": "PDDKLTLFCEFSVVQDSVNISGHT", "note": "[V11F]", "protein stability index": 2.61}
{"variant": "PDDKLTLFCEASVVQDSVNISGHT", "note": "[V11A]", "protein stability index": 4.34}
{"variant": "PDDKLTLFCEDSVVQDSVNISGHT", "note": "[V11D]", "protein stability index": 4.64}
{"variant": "PDDKLTLFCENSVVQDSVNISGHT", "note": "[V11N]", "protein stability index": 4.78}
{"variant": "PDDKLTLFCEVSVVQQSVNISGHT", "note": "[D16Q]", "protein stability index": 1.27}
{"variant": "PDDKLTLFCEVSVVQSSVNISGHT", "note": "[D16S]", "protein stability index": 2.32}
{"variant": "PDDKLTLFCEVSVVQGSVNISGHT", "note": "[D16G]", "protein stability index": 2.01}
{"variant": "PDDKLTLFCEVSVVQPSVNISGHT", "note": "[D16P]", "protein stability index": 1.49}
{"variant": "PDDKLTLFCEVSVVQKSVNISGHT", "note": "[D16K]", "protein stability index": 1.66}
{"variant": "PDDKLTLFCEVSVVQHSVNISGHT", "note": "[D16H]", "protein stability index": 1.15}
{"variant": "PDDKLTLFCEVSVVQWSVNISGHT", "note": "[D16W]", "protein stability index": 2.43}
{"variant": "PDDKLTLFCEVSVVQVSVNISGHT", "note": "[D16V]", "protein stability index": 3.7}
{"variant": "PDDKLTLFCEVSVVQASVNISGHT", "note": "[D16A]", "protein stability index": 2.28}
{"variant": "PDDKLTLFCEVSVVQRSVNISGHT", "note": "[D16R]", "protein stability index": 1.21}
{"variant": "PDDKLTLFCEVSVVQTSVNISGHT", "note": "[D16T]", "protein stability index": 1.53}
{"variant": "PDDKLTLFCEVSVVQESVNISGHT", "note": "[D16E]", "protein stability index": 1.33}
{"variant": "PDDKLTLFCEVSVVQNSVNISGHT", "note": "[D16N]", "protein stability index": 1.8}
{"variant": "PDDKLTLFCEVSHVQDSVNISGHT", "note": "[V13H]", "protein stability index": 3.63}
{"variant": "PDDKLTLFCEVSCVQDSVNISGHT", "note": "[V13C]", "protein stability index": 2.57}
{"variant": "PDDKLTLFCEVSNVQDSVNISGHT", "note": "[V13N]", "protein stability index": 4.03}
{"variant": "PDDKLTLFCEVSSVQDSVNISGHT", "note": "[V13S]", "protein stability index": 3.6}
{"variant": "PDDKLTLFCEVSDVQDSVNISGHT", "note": "[V13D]", "protein stability index": 4.61}
{"variant": "PDDKLTLFCEVSIVQDSVNISGHT", "note": "[V13I]", "protein stability index": 2.51}
{"variant": "PDDKLTLFCEVSQVQDSVNISGHT", "note": "[V13Q]", "protein stability index": 3.95}
{"variant": "PDDKLTLFCEVSEVQDSVNISGHT", "note": "[V13E]", "protein stability index": 4.61}
{"variant": "PDDKLTLFCEVSRVQDSVNISGHT", "note": "[V13R]", "protein stability index": 4.14}
{"variant": "PDDKLTLFCEVSLVQDSVNISGHT", "note": "[V13L]", "protein stability index": 2.02}
{"variant": "PDDKLTLFCEVSFVQDSVNISGHT", "note": "[V13F]", "protein stability index": 2.03}
{"variant": "PDDKLTLFCEVSWVQDSVNISGHT", "note": "[V13W]", "protein stability index": 2.73}
{"variant": "PDDKLTLFCEVSAVQDSVNISGHT", "note": "[V13A]", "protein stability index": 3.35}
{"variant": "PDDKLTLFCEVSTVQDSVNISGHT", "note": "[V13T]", "protein stability index": 3.79}
{"variant": "PDDKLTLFCEVSKVQDSVNISGHT", "note": "[V13K]", "protein stability index": 3.11}
{"variant": "PDDKLTLFCEVSPVQDSVNISGHT", "note": "[V13P]", "protein stability index": 3.99}
{"variant": "PDDKLTLFCEVSYVQDSVNISGHT", "note": "[V13Y]", "protein stability index": 1.94}
{"variant": "PDDKLTLFCEVSMVQDSVNISGHT", "note": "[V13M]", "protein stability index": 2.12}
{"variant": "PDDKLTLFCEVSGVQDSVNISGHT", "note": "[V13G]", "protein stability index": 4.14}
